# Test results: article PMC9449670 (2022)
# Where no end group is shown, it is not given here.
# T1: Pept 02 (GsMTx4 loop2-derived peptide) (Grammostola spatulata, not fully specified (bridges); printed as Trp-Lys-Cys-Asn-Pro-Asn-Asp-Asp-Lys-Cys; cysteine pairing not given here)
# T1 chain: WKCNPNDDKC
# T2: GsMTx4 (Grammostola spatulata, UniProt Q7YT39, not fully specified)
# T2 chain: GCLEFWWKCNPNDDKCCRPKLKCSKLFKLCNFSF
# Assays:
# [1] = target: T1, Pept 02 (GsMTx4 loop2-derived peptide); experiment: inside-out patch clamp dose-response (Hill fit, -50 mV)
# GsMTx4 = target: T2, GsMTx4; experiment: as above
binder,measurement,setting,value
SAKcaC (stretch-activated BK channel) (protein) not shown,Kd,[1],23.8 nM
same,Kd,GsMTx4,47.2 nM
